Data published in paper PMC7556843 (2020).

Target: Ub2 (Homo sapiens)
Test: ITC; values taken from Vincendeau et al.

- Kd: 1810 nM
B1: Human NEMO258-350 C347S (NEMO UBAN domain) (domain or fragment)
chain: MQLEDLKQQLQQAEEALVAKQEVIDKLKEEAEQHKIVMETVPVLKAQADIYKADFQAERQAREKLAEKKELLQEQLEQLQREYSKLKASSQES
modifications: linear (M1-linked) diubiquitin, two 76-residue units fused head to tail; the N-terminal His-tag present in the SAXS sample is left out
